Measured values published in patent EP4702992A1, “ANTIBODY-DRUG CONJUGATE” (priority 2023, dated 2024).

Tests used:
[1] = target: DLL3 on the surface of NCI-H209, SHP77, NCI-H526, NCI-H82 and NCI-H69 cells (human) (UniProt Q9NYJ7); assay: flow cytometry, D-ADC55-1-8 (15 µg/mL) on NCI-H526 cells, anti-human IgG Alexa Fluor 488
[2] = target: DLL3 on the surface of NCI-H209, SHP77, NCI-H526, NCI-H82 and NCI-H69 cells (human) (UniProt Q9NYJ7); assay: flow cytometry, D-ADC55-1-8 (15 µg/mL) on NCI-H69 cells, anti-human IgG Alexa Fluor 488
[3] = target: DLL3 on the surface of NCI-H209, SHP77, NCI-H526, NCI-H82 and NCI-H69 cells (human) (UniProt Q9NYJ7); assay: flow cytometry, D-ADC55-1-8 (15 µg/mL) on NCI-H82 cells, anti-human IgG Alexa Fluor 488
[4] = target: DLL3 on the surface of NCI-H209, SHP77, NCI-H526, NCI-H82 and NCI-H69 cells (human) (UniProt Q9NYJ7); assay: flow cytometry, D-ADC55-1-8 (15 µg/mL) on SHP77 cells, anti-human IgG Alexa Fluor 488
[5] = target: DLL3 on the surface of NCI-H209, SHP77, NCI-H526, NCI-H82 and NCI-H69 cells (human) (UniProt Q9NYJ7); assay: flow cytometry, D-ADC55-1-8 (15 µg/mL) on NCI-H209 cells, anti-human IgG Alexa Fluor 488

Chain of DLL3 on the surface of NCI-H209, SHP77, NCI-H526, NCI-H82 and NCI-H69 cells (human) (Q9NYJ7 27-618): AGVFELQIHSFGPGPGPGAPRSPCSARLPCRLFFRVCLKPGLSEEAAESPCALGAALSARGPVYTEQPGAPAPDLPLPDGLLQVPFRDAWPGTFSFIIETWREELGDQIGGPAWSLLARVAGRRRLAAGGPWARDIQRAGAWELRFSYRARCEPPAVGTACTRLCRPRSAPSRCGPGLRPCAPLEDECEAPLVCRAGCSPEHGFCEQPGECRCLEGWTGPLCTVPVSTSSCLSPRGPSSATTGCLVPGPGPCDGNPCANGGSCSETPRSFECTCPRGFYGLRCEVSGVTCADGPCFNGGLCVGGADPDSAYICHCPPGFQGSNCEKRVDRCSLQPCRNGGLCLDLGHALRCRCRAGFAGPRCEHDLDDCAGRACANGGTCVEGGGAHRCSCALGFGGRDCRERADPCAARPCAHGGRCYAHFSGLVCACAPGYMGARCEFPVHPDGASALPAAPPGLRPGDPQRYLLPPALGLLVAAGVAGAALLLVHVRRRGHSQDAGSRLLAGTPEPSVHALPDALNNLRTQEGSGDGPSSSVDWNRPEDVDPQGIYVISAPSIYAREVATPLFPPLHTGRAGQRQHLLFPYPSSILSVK

DLL3+ % [1]: 29.1% | Experimental well: negative control ratio [1]: 3.73 | DLL3+ % [2]: 5.29% | Experimental well: negative control ratio [2]: 3.03 | DLL3+ % [3]: 11.2% | Experimental well: negative control ratio [3]: 5.02 | DLL3+ % [4]: 35.8% | Experimental well: negative control ratio [4]: 3.23 | DLL3+ % [5]: 44.4% | Experimental well: negative control ratio [5]: 7.73
B1: D-ADC55-1-8 (antibody, human IgG1, kappa, L234A L235A, V domains shown)
VH: QVQLVQSGAEVKKPGASVKVSCKASGYTFTDYYMKWVRQAPGQRLEWMGAFNLNNGDTFYNQKFKGRVTITRDTSASTAYMELSSLRSEDTAVYYCARDVYGYGDYWGQGTSVTVSS
VL: DIVMTQSPDSLAVSLGERATINCRASKSVSTSGYSYMHWYQQKPGQPPKLLIYLASNLDSGVPDRFSGSGSGTDFTLTISSLQAEDVAVYYCQHSRELPYTFGGGTKLEIKR
modifications: linker-drug LD55-1 (exatecan payload) conjugated to sulfhydryls of reduced interchain disulfide cysteines; average DAR 8.0 per antibody
